In paper PMC9482650, “Quantitative fragmentomics allow affinity mapping of interactomes” (Nature Communications, 2022):

T1: SNTG2, Q9NY99
T1 sequence (Q9NY99 68-166, limits assumed, looked up): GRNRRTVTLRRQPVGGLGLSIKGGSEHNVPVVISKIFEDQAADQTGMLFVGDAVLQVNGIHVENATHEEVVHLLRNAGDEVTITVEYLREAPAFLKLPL

T2: MPP2, Q14168
T2 sequence (Q14168 180-250, limits assumed, looked up): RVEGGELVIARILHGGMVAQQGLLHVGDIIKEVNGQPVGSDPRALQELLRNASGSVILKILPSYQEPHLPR

T3: DFNB31_2, Q9P202
T3 sequence (Q9P202 274-371, limits assumed, looked up): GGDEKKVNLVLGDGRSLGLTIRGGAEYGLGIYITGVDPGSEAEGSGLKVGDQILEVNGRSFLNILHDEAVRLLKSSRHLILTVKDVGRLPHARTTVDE

T4: CARD11, Q9BXL7
T4 sequence (Q9BXL7 662-765, limits assumed, looked up): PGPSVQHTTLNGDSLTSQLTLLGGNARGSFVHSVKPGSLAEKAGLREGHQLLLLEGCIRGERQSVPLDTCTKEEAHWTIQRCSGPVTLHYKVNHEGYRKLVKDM

T5: PDZD7_3, Q9H5P4
T5 sequence (Q9H5P4 857-944, limits assumed, looked up): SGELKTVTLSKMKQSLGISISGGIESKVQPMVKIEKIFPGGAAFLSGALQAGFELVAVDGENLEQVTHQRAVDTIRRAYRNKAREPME

T6: PTPN13_1, Q12923
T6 sequence (Q12923 1088-1188, limits assumed, looked up): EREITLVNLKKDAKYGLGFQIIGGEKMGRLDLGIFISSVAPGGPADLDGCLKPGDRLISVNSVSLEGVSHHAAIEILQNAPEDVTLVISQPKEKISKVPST

T7: LNX2_2, Q8N448
T7 sequence (Q8N448 334-432, limits assumed, looked up): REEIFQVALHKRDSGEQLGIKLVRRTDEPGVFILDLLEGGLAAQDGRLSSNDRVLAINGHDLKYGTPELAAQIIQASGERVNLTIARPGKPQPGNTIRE

T8: SHANK1, Q9Y566
T8 sequence (Q9Y566 658-767, limits assumed, looked up): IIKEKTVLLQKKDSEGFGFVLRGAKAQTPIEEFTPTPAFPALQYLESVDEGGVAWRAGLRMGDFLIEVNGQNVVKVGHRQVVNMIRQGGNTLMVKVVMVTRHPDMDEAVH

T9: SIPA1L2, Q9P2F8
T9 sequence (Q9P2F8 945-1036, limits assumed, looked up): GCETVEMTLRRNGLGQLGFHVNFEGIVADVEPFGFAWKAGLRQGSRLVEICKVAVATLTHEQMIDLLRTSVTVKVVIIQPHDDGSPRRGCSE

T10: DFNB31_1, Q9P202
T10 sequence (Q9P202 135-233, limits assumed, looked up): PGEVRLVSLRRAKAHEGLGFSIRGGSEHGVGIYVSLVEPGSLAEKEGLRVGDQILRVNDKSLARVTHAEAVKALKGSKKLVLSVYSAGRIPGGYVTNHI

T11: PARD3B_1, Q8TEW8
T11 sequence (Q8TEW8 196-299, limits assumed, looked up): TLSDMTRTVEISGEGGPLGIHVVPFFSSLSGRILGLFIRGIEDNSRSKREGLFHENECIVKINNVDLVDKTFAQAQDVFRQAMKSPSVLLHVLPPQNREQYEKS

T12: GRIP1_4, Q9Y3R0
T12 sequence (Q9Y3R0 467-571, limits assumed, looked up): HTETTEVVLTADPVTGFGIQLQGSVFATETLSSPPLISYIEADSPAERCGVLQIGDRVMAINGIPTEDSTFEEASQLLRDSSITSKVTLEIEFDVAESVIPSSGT


Columns and labels:
Experiment in all cases: holdup assay
Design in all cases: key: below the threshold = too weak to quantify, mostly under pKd 3.1 to 4
Conditions in all cases: plain residues with an end cap or a label only (N-terminal biotin on a linker: ado-ado)
[1] = molecular target: Inadl_9, Q8NI35
[2] = molecular target: NHERF2_2, Q15599
[3] = molecular target: LNX1_1, Q8TBB1
[4] = molecular target: SCRIB_3, Q14160
[5] = molecular target: MAGI1_1, Q96QZ7
[6] = molecular target: GIPC2, Q8TF65
[7] = molecular target: T1, SNTG2, Q9NY99
[8] = molecular target: MAGI2_6, Q86UL8
[9] = molecular target: NHERF4_1, Q86UT5-2
[10] = molecular target: LDB3, O75112
[11] = molecular target: T2, MPP2, Q14168
[12] = molecular target: T3, DFNB31_2, Q9P202
[13] = molecular target: GRASP, Q7Z6J2
[14] = molecular target: T4, CARD11, Q9BXL7
[15] = molecular target: T5, PDZD7_3, Q9H5P4
[16] = molecular target: DLG4_1, P78352
[17] = molecular target: T6, PTPN13_1, Q12923
[18] = molecular target: IL16_1, Q14005
[19] = molecular target: GRID2IP_2, A4D2P6
[20] = molecular target: T7, LNX2_2, Q8N448
[21] = molecular target: T8, SHANK1, Q9Y566
[22] = molecular target: T9, SIPA1L2, Q9P2F8
[23] = molecular target: T10, DFNB31_1, Q9P202
[24] = molecular target: T11, PARD3B_1, Q8TEW8
[25] = molecular target: T12, GRIP1_4, Q9Y3R0

Chain of Inadl_9, Q8NI35 (Q8NI35 1530-1615): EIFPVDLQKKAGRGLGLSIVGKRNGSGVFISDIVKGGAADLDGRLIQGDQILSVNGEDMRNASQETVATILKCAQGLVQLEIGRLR
Chain of GIPC2, Q8TF65 (Q8TF65 112-203): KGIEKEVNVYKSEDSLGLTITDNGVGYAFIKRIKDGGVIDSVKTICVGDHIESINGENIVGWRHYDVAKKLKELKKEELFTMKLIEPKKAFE
Chain of GRID2IP_2, A4D2P6 (A4D2P6 272-370): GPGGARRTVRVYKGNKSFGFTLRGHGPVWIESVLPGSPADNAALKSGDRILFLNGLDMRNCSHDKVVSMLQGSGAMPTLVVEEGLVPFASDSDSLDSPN
Chain of MAGI1_1, Q96QZ7 (Q96QZ7 1-106): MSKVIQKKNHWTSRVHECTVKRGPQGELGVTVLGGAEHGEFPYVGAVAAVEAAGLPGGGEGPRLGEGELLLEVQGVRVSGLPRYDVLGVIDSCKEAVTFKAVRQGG
Chain of IL16_1, Q14005 (Q14005 210-306): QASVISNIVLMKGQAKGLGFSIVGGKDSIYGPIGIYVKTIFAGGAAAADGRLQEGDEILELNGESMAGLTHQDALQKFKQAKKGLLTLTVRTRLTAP
Chain of GRASP, Q7Z6J2 (Q7Z6J2 96-193): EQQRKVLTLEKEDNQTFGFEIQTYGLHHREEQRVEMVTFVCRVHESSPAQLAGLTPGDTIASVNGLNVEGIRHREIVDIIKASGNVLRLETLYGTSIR
Chain of NHERF4_1, Q86UT5-2 (Q86UT5 other isoform, or with tags, fused parts or gaps): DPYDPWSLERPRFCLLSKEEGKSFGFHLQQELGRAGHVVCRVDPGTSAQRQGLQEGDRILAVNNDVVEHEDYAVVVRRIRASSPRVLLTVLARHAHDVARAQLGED
Chain of SCRIB_3, Q14160 (Q14160 999-1103): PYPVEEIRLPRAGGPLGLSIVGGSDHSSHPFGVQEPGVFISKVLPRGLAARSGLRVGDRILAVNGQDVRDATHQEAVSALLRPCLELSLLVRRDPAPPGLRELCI
Chain of LNX1_1, Q8TBB1 (Q8TBB1 261-371): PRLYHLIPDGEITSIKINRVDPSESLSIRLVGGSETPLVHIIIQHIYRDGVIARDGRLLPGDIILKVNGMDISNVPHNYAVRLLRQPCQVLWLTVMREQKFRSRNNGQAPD
Chain of DLG4_1, P78352 (P78352 62-152): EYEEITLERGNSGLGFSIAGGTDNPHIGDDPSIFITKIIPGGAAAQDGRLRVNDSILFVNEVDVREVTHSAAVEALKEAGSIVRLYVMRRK
Chain of NHERF2_2, Q15599 (Q15599 142-238): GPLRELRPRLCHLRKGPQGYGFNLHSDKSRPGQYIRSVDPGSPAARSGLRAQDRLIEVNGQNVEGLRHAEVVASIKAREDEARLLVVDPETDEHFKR
Chain of LDB3, O75112 (O75112 1-94): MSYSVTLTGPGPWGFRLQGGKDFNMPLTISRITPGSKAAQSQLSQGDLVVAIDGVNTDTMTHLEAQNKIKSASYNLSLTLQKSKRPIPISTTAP
Chain of MAGI2_6, Q86UL8 (Q86UL8 1141-1229): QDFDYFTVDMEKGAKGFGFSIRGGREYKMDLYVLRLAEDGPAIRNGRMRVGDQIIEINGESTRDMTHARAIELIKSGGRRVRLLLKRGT

Row | Binder | pKd [1] | pKd [2] | pKd [3] | pKd [4] | pKd [5] | pKd [6] | pKd [7] | pKd [8] | pKd [9] | pKd [10] | pKd [11] | pKd [12] | pKd [13] | pKd [14] | pKd [15] | pKd [16] | pKd [17] | pKd [18] | pKd [19] | pKd [20] | other results
1 | QKASRNESTF [POLR1D, P0DPB6] | below the threshold | 3.7 | 3.52 | 4.12 | below the threshold | below the threshold | below the threshold | below the threshold | below the threshold | below the threshold | below the threshold | below the threshold | below the threshold | below the threshold | 3.71 | below the threshold | below the threshold | below the threshold | below the threshold | below the threshold | pKd [21]: below the threshold; pKd [22]: below the threshold; pKd [23]: below the threshold; pKd [24]: 4.05; pKd [25]: below the threshold
2 | DSEEELPTRL [GRK6, P43250] | 3.69 | 4.51 | 3.82 | 3.53 | below the threshold | 3.65 | 3.57 | below the threshold | 4.22 | below the threshold | below the threshold | below the threshold | 4.16 | below the threshold | 4.18 | below the threshold | below the threshold | below the threshold | below the threshold | below the threshold | pKd [21]: 4.71; pKd [22]: below the threshold; pKd [23]: below the threshold; pKd [24]: 4.51; pKd [25]: below the threshold
3 | KPDKQEEFYA [SDC3, O75056] | below the threshold | below the threshold | below the threshold | below the threshold | below the threshold | below the threshold | below the threshold | below the threshold | below the threshold | below the threshold | below the threshold | below the threshold | below the threshold | below the threshold | below the threshold | below the threshold | below the threshold | below the threshold | below the threshold | below the threshold | pKd [21]: below the threshold; pKd [22]: below the threshold; pKd [23]: below the threshold; pKd [24]: 4.65; pKd [25]: below the threshold
4 | RDYTQSSSSL [GRM5, P41594] | below the threshold | 4.52 | below the threshold | 4.05 | below the threshold | below the threshold | below the threshold | 3.49 | 4.13 | below the threshold | below the threshold | below the threshold | 4.33 | below the threshold | below the threshold | below the threshold | below the threshold | below the threshold | 4.12 | below the threshold | pKd [21]: 4.7; pKd [22]: below the threshold; pKd [23]: below the threshold; pKd [24]: 3.82; pKd [25]: below the threshold
